Experimental data as given in publication PMC9352680, “A comprehensive thermodynamic model for RNA binding by the Saccharomyces cerevisiae Pumilio protein PUF4”.
Numbering of substitutions follows the chain as printed. Names and notes keep the numbering of the source.

T1: PUF4 RNA-binding domain (Saccharomyces cerevisiae, UniProt P25339 537-888)
T1 sequence: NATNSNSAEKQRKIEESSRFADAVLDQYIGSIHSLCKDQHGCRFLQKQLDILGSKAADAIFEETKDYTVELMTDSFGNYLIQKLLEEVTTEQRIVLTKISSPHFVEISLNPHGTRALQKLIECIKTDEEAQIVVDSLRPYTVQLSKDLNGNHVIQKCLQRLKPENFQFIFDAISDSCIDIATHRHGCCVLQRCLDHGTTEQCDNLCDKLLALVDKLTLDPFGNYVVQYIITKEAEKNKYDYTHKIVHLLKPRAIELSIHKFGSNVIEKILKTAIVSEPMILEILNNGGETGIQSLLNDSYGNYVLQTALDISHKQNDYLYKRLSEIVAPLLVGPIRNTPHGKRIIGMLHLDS

B1: Id_ii_S2_P4E.4_K4.3_C4.2_[C-2A]_H4.3_A4.1_F4.1_T4.2_[G10A]_[T11C] (ssRNA)
RNA: UUUGAUUAAUAUGAUAUCGUUCUUUCUAUACACUAUUAACUUCUUUCUCGAUAUCAUAUUAAUCUUU
B2: Id_ii_S2_P4E.4_K4.3_C4.2_[T-1A]_H4.3_A4.1_F4.1_T4.2_[G10T]_[T11A] (ssRNA)
RNA: B1 RNA with A28C, U29A, A39U, C40A
B3: Id_ii_S2_P4E.4_K4.3_C4.2_[T-1G]_H4.3_A4.1_F4.1_T4.2_[G10T]_[T11C] (ssRNA)
RNA: B1 RNA with A28C, U29G, A39U
B4: Id_ii_S2_P4E.4_K4.3_C4.2_[T-1A]_H4.3_A4.1_F4.1_T4.2_[T11C] (ssRNA)
RNA: B1 RNA with A28C, U29A, A39G
B5: Id_ii_S2_P4E.4_K4.3_C4.2_[T-1A]_H4.3_A4.1_F4.1_T4.2_[G10C] (ssRNA)
RNA: B1 RNA with A28C, U29A, A39C, C40U
B6: Id_ii_S2_P4E.4_K4.3_C4.2_[T-1C]_H4.3_A4.1_F4.1_T4.2_[G10T]_[T11A] (ssRNA)
RNA: B1 RNA with A28C, U29C, A39U, C40A
B7: Id_ii_S2_P4E.4_K4.3_C4.2_[T-1C]_H4.3_A4.1_F4.1_T4.2_[G10C]_[T11C] (ssRNA)
RNA: B1 RNA with A28C, U29C, A39C
B8: Id_ii_S2_P4E.4_K4.3_C4.2_[T-1C]_H4.3_A4.1_F4.1_T4.2_[G10A]_[T11A] (ssRNA)
RNA: B1 RNA with A28C, U29C, C40A
B9: Id_ii_S2_P4E.4_K4.3_C4.2_[T-1A]_H4.3_A4.1_F4.1_T4.2_[G10A] (ssRNA)
RNA: B1 RNA with A28C, U29A, C40U
B10: Id_ii_S2_P4E.4_K4.3_C4.2_[T-1C]_H4.3_A4.1_F4.1_T4.2_[G10A] (ssRNA)
RNA: B1 RNA with A28C, U29C, C40U
B11: Id_ii_S2_P4E.4_K4.3_C4.2_[T-1A]_H4.3_A4.1_F4.1_T4.2 (ssRNA)
RNA: B1 RNA with A28C, U29A, A39G, C40U
B12: Id_ii_S2_P4E.4_K4.3_C4.2_[T-1A]_H4.3_A4.1_F4.1_T4.2_[G10A]_[T11C] (ssRNA)
RNA: B1 RNA with A28C, U29A
B13: Id_ii_S2_P4E.4_K4.3_C4.2_[T-1G]_H4.3_A4.1_F4.1_T4.2_[G10T] (ssRNA)
RNA: B1 RNA with A28C, U29G, A39U, C40U
B14: Id_ii_S2_P4E.4_K4.3_C4.2_H4.3_A4.1_F4.1_T4.2_[G10T] (ssRNA)
RNA: B1 RNA with A28C, A39U, C40U
B15: Id_ii_S2_P4E.4_K4.3_C4.2_[T-1A]_H4.3_A4.1_F4.1_T4.2_[G10C]_[T11C] (ssRNA)
RNA: B1 RNA with A28C, U29A, A39C
B16: Id_ii_S2_P4E.4_K4.3_C4.2_[T-1C]_H4.3_A4.1_F4.1_T4.2_[G10T] (ssRNA)
RNA: B1 RNA with A28C, U29C, A39U, C40U
B17: Id_ii_S2_P4E.4_K4.3_C4.2_H4.3_A4.1_F4.1_T4.2_[G10A] (ssRNA)
RNA: B1 RNA with A28C, C40U
B18: Id_ii_S2_P4E.4_K4.3_C4.2_H4.3_A4.1_F4.1_T4.2 (ssRNA)
RNA: B1 RNA with A28C, A39G, C40U
B19: Id_ii_S2_P4E.4_K4.3_C4.2_[T-1G]_H4.3_A4.1_F4.1_T4.2_[G10C] (ssRNA)
RNA: B1 RNA with A28C, U29G, A39C, C40U
B20: Id_ii_S2_P4E.4_K4.3_C4.2_[T-1C]_H4.3_A4.1_F4.1_T4.2 (ssRNA)
RNA: B1 RNA with A28C, U29C, A39G, C40U
B21: Id_ii_S2_P4E.4_K4.3_C4.2_H4.3_A4.1_F4.1_T4.2_[G10T]_[T11A] (ssRNA)
RNA: B1 RNA with A28C, A39U, C40A
B22: Id_ii_S2_P4E.4_K4.3_C4.2_H4.3_A4.1_F4.1_T4.2_[G10C]_[T11C] (ssRNA)
RNA: B1 RNA with A28C, A39C
B23: Id_ii_S2_P4E.4_K4.3_C4.2_H4.3_A4.1_F4.1_T4.2_[T11C] (ssRNA)
RNA: B1 RNA with A28C, A39G
B24: Id_ii_S2_P4E.4_K4.3_C4.2_H4.3_A4.1_F4.1_T4.2_[G10C]_[T11G] (ssRNA)
RNA: B1 RNA with A28C, A39C, C40G
B25: Id_ii_S2_P4E.4_K4.3_C4.2_[T-1G]_H4.3_A4.1_F4.1_T4.2_[G10A]_[T11C] (ssRNA)
RNA: B1 RNA with A28C, U29G

Target: T1, PUF4 RNA-binding domain
Experiment: Mg; RNA-MaP; 20 mM Na-HEPES pH 7.4, 30 mM KOAc, 0.75 mM MgCl2, 0.1% Tween-20, 5% glycerol, 0.1 mg/mL BSA, 2 mM DTT; 25 C; 0.0125-409.6 nM protein
Conditions: tags: N-His6-TEV cleaved; C-SNAP kept, Cy3B-labelled; label: tethered on chip by stalled RNA polymerase

Binder	Kd [nM]
UCUCUUUGUACUAAUAUCUCUU (ssRNA) [Ic_S1_P5E.1_K5.1_C5.1_H5.1_A5.1_[T5C]_F5.1_[T8A]_T5.1]	12.5
UCUCUUUGUAUCAGUAUCUCUU (ssRNA) [Ib_S1_P5E.1_K5.1_C5.1_H5.1_A5.1_[T6C]_F5.1_[T8G]_T5.1]	27.9
UCUCUUUGUAAUAAUAUCUCUU (ssRNA) [Ib_S1_P5E.1_K5.1_C5.1_H5.1_A5.1_[T5A]_F5.1_[T8A]_T5.1]	17.8
B1	9.57
B2	748
B3	> 2300
B4	> 2300
B5	> 2300
B6	594
B7	> 2300
B8	> 2300
B9	> 2300
B10	> 2300
B11	> 2300
B12	2240
B13	> 2300
B14	528
B15	> 2300
B16	2050
B17	498
B18	> 2300
B19	> 2300
B20	> 2300
B21	459
B22	563
B23	1620
B24	> 2300
B25	> 2300
